Measured values taken from article PMC4514675, “Novel Apo E-Derived ABCA1 Agonist Peptide (CS-6253) Promotes Reverse Cholesterol Transport and Induces Formation of preβ-1 HDL In Vitro” (PLoS ONE, 2015).

Legend:
human ABCG1 = biological target: T1, human ABCG1 (Homo sapiens, UniProt P45844); assay: ABCG1-mediated cholesterol efflux from BHK-ABCG1 cells; assay type: cell-based
T1 construct: expressed in transfected cells; host or cells: BHK cells, stably transfected, induced with 10 nmol/l mifepristone
Protocol: Supplementary file pone.0131997.s009.tif: S8 Fig In-vitro time-dependent ABCG1-mediated cholesterol efflux activity to nHDL-CS-6253 particles generated by BHK cells expressing ABCA1. Unlabeled BHK cells expressing ABCA1 were treated with 0.96 μM lipid free apo A-I or CS-6253 for 18 h as described in experimental procedures in the online-only Supplementary appendix, S1 Appendix. Then the medium was collected and added to 3[H]cholesterol-labeled ABCG1 expressing cells in a time-dependent fashion (0–6h), and assayed for cholesterol efflux (only 6h time point is shown). (TIF) Click here for additional data file.
Supplementary file pone.0131997.s010.tif: S9 Fig In-vitro ABCG1-mediated cholesterol efflux activity to lipid free CS-6253 and nHDL-CS-6253 particles generated by BHK cells expressing ABCA1. Unlabeled ABCA1 expressing cells were treated with increasing concentrations of apo A-I or CS-6253 for 18 h. The medium from unlabeled ABCA1 cells treated as described in experimental procedures, centrifuged to remove cellular debris, added to ^3[H]cholesterol-BHK ABCG1 expressing cells for 6 h, and assayed for efflux as described in the online-only Supplementary appendix, S1 Appendix. Lipid free peptide and apo A-I are also tested against ABCG1 expressing cells for 6h cholesterol efflux. (We selected 1 μM nHDL mimetic or nHDL-apo A-I or lipid free peptide and apo A-I for the figure). […] Efflux of ^3[H]cholesterol is shown as means ± SD of triplicate experiments. (TIF) Click here for additional data file.
All cell culture incubations were performed at 37 °C in a humidified 5% CO2. Cells (J774, or BHK overexpressing human ABCG1) were labeled with 2 μCi/ml ^3H-free cholesterol (Perkin Elmer, Norwalk, Connecticut) for 24 h. Simultaneously J774 cells were incubated with 2 μg/ml ACAT inhibitor (Sandoz, Sigma, Oakville, Canada). Afterward, J774 and BHK-ABCG1 were stimulated with 0.5 mmol/l (cpt-cAMP) (2) or 10 nmol/l mifepristone for 18-20 h, respectively (1). Cells were incubated with various doses of acceptor in media for 6 h for J774 macrophages and BHK-ABCG1 cells. Media were collected, centrifuged at 3.000 g for 5min to remove cell debris, and counted for radioactivity. Cells were lysed in 0.5 ml of (0.1N) NaOH overnight with constant shaking. Further, 0.2 ml cells lysates were mixed with scintillation liquid and counted for radioactivity. Efflux from stimulated cells without acceptor was subtracted from total efflux to determine net efflux. Cholesterol efflux was calculated according to the following formula as the percentage of ^3H-cpm medium/(^3H-cpm medium + ^3H-cpm cells) x 100%. Efflux efficiency (Km) was calculated using the Michaelis-Menten equation (Graph-Pad Prism6 software) respectively (S1, S8 and S9 Figs.)

THP-1 foam cells = assay: Cholesterol efflux from THP-1 macrophage-derived foam cells; assay type: cell-based, human
Protocol: Human THP-1 macrophages (American Type Tissue Culture Collection, Camden, NJ) were grown as previously reported. Cells were plated at 2x10^5/ml 24 well-plates in RPMI1640 medium containing 10% fetal bovine serum (FBS), 50 μM β–mercaptoethanol, 50 μg/ml gentamicin, and maintained at 37°C in a humidified atmosphere of 5% CO2. THP-1 cells were differentiated into macrophages by the addition of 200 nM phorbol myristyl acetate (PMA) for 72h. Macrophages were incubated for 72h to become fully differentiated macrophages prior to experiment. […]
Human macrophages THP-1 cells were labelled with ^3H-cholesterol (5 μCi/ml) incorporated into AcLDL (100 μg/ml) in the presence of 1% FBS, 50 μM β-mercaptoethanol and 200 nM PMA, and incubated for 72h. […] Medium and cell associated ^3H-cholesterol were then measured by liquid scintillation counting. Cholesterol efflux was calculated according to the following equation as the percentage of ^3H-cpm medium / (^3H-cpm medium + ^3H-cpm cells) × 100%. […] Bands corresponding to ^3[H]-FC and ^3[H]-CE were located by exposure to iodine vapor, and were scraped off the plate into liquid scintillating vials and assayed for radioactivity.
Fig 2 Effect of CS-6253 treatment on cholesterol efflux. […] Cholesterol efflux from either ABCA1 cells or control cells to apo A-I (closed circles), and CS-6253 (closed triangles) was determined at the indicated time points. […]

[1] = BHK-ABCG1, 6 h, mean ± SD, triplicate

In the case of apolipoprotein A-I [apo A-I], the Km (human ABCG1; [1]) is reported as 0.06 ± 0.01 µM, the “Km, ABCG1-mediated cholesterol efflux” value (human ABCG1; [1]) is reported as 1.7 ± 0.50 µg/mL and the “Vmax, ABCG1-mediated cholesterol efflux” value (human ABCG1; BHK-ABCG1, mean ± SD, triplicate) is reported as 0.96 ± 0.01 % efflux/6h. The “maximum net ABCG1 cholesterol efflux above base line” value (human ABCG1; lipid free, BHK-ABCG1, 6 h) was 1%, the “3H-FC removed from FC-enriched THP-1 cells” value (THP-1 foam cells; 0.96 μM acceptor, 24 h, vs control without acceptor, triplicate wells, mean ± SD) was 27.42±1.04% and the “proportion of FC mobilized away from the CE cycle” value (THP-1 foam cells; THP-1 foam cells, P<0.05) was 29%.
